Results: US20230265179A1 (TWIST BIOSCIENCE, published 2023)

T1: IL1RL1 (UniProt Q01638 19-328, limits assumed)
T1 construct: SPR analyte
T1 sequence (looked up): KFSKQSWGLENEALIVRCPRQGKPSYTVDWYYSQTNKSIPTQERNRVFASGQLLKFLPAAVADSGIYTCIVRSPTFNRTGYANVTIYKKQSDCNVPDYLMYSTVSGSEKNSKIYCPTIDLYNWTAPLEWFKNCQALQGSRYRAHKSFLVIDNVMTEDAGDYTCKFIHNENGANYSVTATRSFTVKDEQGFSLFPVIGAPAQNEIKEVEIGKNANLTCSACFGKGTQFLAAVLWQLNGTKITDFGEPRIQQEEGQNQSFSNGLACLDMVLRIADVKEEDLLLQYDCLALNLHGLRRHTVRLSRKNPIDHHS

T2: IL1RL1 over-expressed on Expi293 cells (UniProt Q01638 19-556, limits assumed)
T2 construct: whole, on cells; Target of the flow cytometry MFI ratio (over-expressing cells over parent cells); also called cytokine over-expressing Expi293 cells
T2 sequence (looked up): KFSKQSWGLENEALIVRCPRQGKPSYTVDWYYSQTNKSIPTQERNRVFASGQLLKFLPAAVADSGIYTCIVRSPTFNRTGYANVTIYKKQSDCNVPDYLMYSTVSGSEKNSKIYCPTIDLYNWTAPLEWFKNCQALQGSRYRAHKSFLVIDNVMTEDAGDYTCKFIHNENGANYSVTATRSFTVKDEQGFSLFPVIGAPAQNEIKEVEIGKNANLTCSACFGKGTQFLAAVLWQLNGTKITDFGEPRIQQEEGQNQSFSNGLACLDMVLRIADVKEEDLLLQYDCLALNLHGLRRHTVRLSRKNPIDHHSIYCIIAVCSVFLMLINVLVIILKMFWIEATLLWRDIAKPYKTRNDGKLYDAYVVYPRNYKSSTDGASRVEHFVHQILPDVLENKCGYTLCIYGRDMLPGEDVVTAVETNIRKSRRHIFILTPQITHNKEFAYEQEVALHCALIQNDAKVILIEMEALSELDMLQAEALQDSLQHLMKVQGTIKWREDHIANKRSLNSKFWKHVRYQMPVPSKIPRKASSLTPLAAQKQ

T3: IL1RL1 (UniProt Q01638 19-556, limits assumed)
T3 construct: whole, on cells; The flow cytometry used 'cytokine over-expressing Expi293 cells' against Expi293 parent cells
T3 sequence (looked up): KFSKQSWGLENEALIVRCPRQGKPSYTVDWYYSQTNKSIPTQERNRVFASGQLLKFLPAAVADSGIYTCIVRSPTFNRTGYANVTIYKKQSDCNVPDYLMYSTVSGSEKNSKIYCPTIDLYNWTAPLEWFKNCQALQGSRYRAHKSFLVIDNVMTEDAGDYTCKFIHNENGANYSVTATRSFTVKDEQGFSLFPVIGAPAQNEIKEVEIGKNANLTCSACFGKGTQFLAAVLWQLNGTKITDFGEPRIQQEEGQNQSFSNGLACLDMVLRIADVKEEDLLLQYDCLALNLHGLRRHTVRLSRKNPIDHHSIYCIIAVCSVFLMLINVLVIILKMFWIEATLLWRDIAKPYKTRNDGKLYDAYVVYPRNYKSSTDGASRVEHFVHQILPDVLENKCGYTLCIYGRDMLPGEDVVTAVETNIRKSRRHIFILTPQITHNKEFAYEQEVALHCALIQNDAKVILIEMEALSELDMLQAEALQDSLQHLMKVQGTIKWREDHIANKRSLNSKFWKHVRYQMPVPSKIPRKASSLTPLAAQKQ


Tests used:
IL1RL1 [1] = molecular target: T1, IL1RL1; assay: SPR (Carterra LSA), antibody amine-coupled
Procedure: SPR experiments were performed on a Carterra LSA SPR biosensor equipped with a HC30M chip at 25° C. in HBS-TE. Antibodies were diluted to 10 μg/mL and amine-coupled to the sensor chip by EDC/NHS activation, followed by ethanolamine HCl quenching. Increasing concentrations of analyte were flowed over the sensor chip in HBS-TE with 0.5 mg/mL BSA with 5-minute association and 15-minute dissociation. Following each injection cycle the surface was regenerated with 2× 30-second injections of IgG elution buffer (Thermo). Data were analyzed in Carterra's Kinetics Tool software with 1:1 binding model.

[2] = molecular target: T2, IL1RL1 over-expressed on Expi293 cells; assay: flow cytometry, 100 nM antibody, over-expressing Expi293 / parent cells
Procedure: (§1) All incubations and washes were in buffer containing PBS+1% BSA. MFI Ratio is defined by the mean fluorescence intensity (MFI) of the cytokine over-expressing Expi293 cell over the Expi293 parent cell. […] EC50 was calculated in GraphPad Prism.

IL1RL1 [3] = molecular target: T3, IL1RL1; assay: flow cytometry, 100 nM IgG on IL1RL1 over-expressing Expi293 cells; MFI over that of Expi293 parent cells
Procedure: as §1

Binder | binding result (IL1RL1 [1]) | 100 nM FACS (MFI Ratio) [2] [MFI ratio] | 100 nM FACS (MFI Ratio) (IL1RL1 [3]) [MFI ratio]
IL1RL1-48 (Fc fusion, not shown: a dimerising Fc or GST, VHH-Fc on IgG2 Fc) VHH: EVQLVESGGGLVQPGGSLRLSCAASGTTFSSDVMGWFRQAPGKERELVAVIIDSRTTKYADSVKGRFTISADNSKNTAYLQMNSLKPEDTAVYYCAAVGGATTVTASEWDWGQGTLVTVSS | no binding | 1.06 | –
IL1RL1-77 (Fc fusion, not shown: a dimerising Fc or GST, VHH-Fc on IgG2 Fc) VHH: EVQLVESGGGLVQPGGSLRLSCAASGRTFSSYVMGWFRQAPGKEREFVAVIIDSRTTKYADSVKGRFTISADNSKNTAYLQMNSLKPEDTAVYYCAAVGGATTVTASEWDWGQGTLVTVSS | no binding | 1.12 | –
IL1RL1-42 (Fc fusion, not shown: a dimerising Fc or GST, VHH-Fc on IgG2 Fc) VHH: EVQLVESGGGLVQPGGSLRLSCAASGFILDYYAMGWFRQAPGKEREWVSSIGIAGTPTFYADSVKGRFTISADNSKNTAYLQMNSLKPEDTAVYYCAGRLSNGLDWGQGTLVTVSS | no binding | 0.86 | –
IL1RL1-37 (Fc fusion, not shown: a dimerising Fc or GST, VHH-Fc on IgG2 Fc) VHH: EVQLVESGGGLVQPGGSLRLSCAASGGTFGSYAMGWFRQAPGKEREFVAAINWSGARTYYADSVKGRFTISADNSKNTAYLQMNSLKPEDTAVYYCAVSQPLNYYTYYDARRYDWGQGTLVTVSS | no binding | 1.25 | –
IL1RL1-387 (antibody, V domains shown) VH: EVQLLESGGGLVQPGGSLRLSCAASGFTFNRYAMNWVRQAPGKGLEWVSTISASGGRTYYADSVKGRFTISRDNSKNTLYLQMNSLRAEDTAVYYCARGSLRLDTWGQGTLVTVSS VL: DIQMTQSPSSLSASVGDRVTITCRASQNIASYLNWYQQKPGKAPKLLIYGASRLQSGVPSRFSGSGSGTDFTLTISSLQPEDFATYYCQQSSTPRTFGGGTKVEIK | – | – | 1.06
IL1RL1-51 (Fc fusion, not shown: a dimerising Fc or GST, VHH-Fc on IgG2 Fc) VHH: EVQLVESGGGLVQPGGSLRLSCAASGVTLDLYAMGWFRQAPGKEREWVSSIGIAGTPTFYADSVKGRFTISADNSKNTAYLQMNSLKPEDTAVYYCAANYGGSVLYNWGQGTLVTVSS | no binding | 1.28 | –
IL1RL1-41 (Fc fusion, not shown: a dimerising Fc or GST, VHH-Fc on IgG2 Fc) VHH: EVQLVESGGGLVQPGGSLRLSCAASGGTLSSYIMGWFRQAPGKEREGVAAIDSDGSTSYADSVKGRFTISADNSKNTAYLQMNSLKPEDTAVYYCAARPVRVDDISLPVGFDWGQGTLVTVSS | no binding | 0.55 | –

Results, then the binder that gave them:

binding result (IL1RL1 [1]) | 100 nM FACS (MFI Ratio) [2] [MFI ratio] | 100 nM FACS (MFI Ratio) (IL1RL1 [3]) [MFI ratio] | Binder
– | – | 7.61 | IL1RL1-385 (antibody, V domains shown) VH: EVQLLESGGGLVQPGGSLRLSCAASGFTFNTFAMSWVRQAPGKGLELVSAISGSGGNTYYVDSVKGRFTISRDNSKNTLYLQMNSLRAEDTAVYYCARLGSGSSSSIDYWGQGTLVTVSS VL: DIQMTQSPSSLSASVGDRVTITCRASQYISTFLNWYQQKPGKAPKLLIYAASRLQDGVPSRFSGSGSGTDFTLTISSLQPEDFATYYCQQSYGSSWTFGGGTKVEIK
– | – | 0.73 | IL1RL1-388 (antibody, V domains shown) VH: EVQLLESGGGLVQPGGSLRLSCAASGFTFSRFAMSWVRQAPGKGLEWVSGISGSSGNTYYADSVKGRFTISRDNSKNTLYLQMNSLRAEDTAVYYCAREKRLPIRRRSGEPLGNYFDYWGQGTLVTVSS VL: DIQMTQSPSSLSASVGDRVTITCRTSQSIRKYLNWYQQKPGKAPKLLIYASSRLQSGVPSRFSGSGSGTDFTLTISSLQPEDFATYYCQQNYRTPFTFGGGTKVEIK
no binding | 1.25 | – | IL1RL1-43 (Fc fusion, not shown: a dimerising Fc or GST, VHH-Fc on IgG2 Fc) VHH: EVQLVESGGGLVQPGGSLRLSCAASGRTYAMGWFRQAPGKEREWVASISTSGSTITPYADSVKGRFTISADNSKNTAYLQMNSLKPEDTAVYYCAANVASGLKILQWGQGTLVTVSS
